Substrate in data set [1]: NC(=O)C1=CN([C@@H]2O[C@H](COP(=O)(O)OP(=O)(O)OC[C@H]3O[C@@H](n4cnc5c(N)ncnc54)[C@H](O)[C@@H]3O)[C@@H](O)[C@H]2O)C=CC1
The data set can be described thus: ferrozine A562 ferric reductase assay. It counts as biochemical, Paramagnetospirillum magneticum. The note with it: stimulation of ferric reductase activity, electron donor, FAD and ferric citrate present, pH 7.5.

Substrate in data set [2]: Cc1cc2nc3c(=O)[nH]c(=O)nc-3n(C[C@H](O)[C@H](O)[C@H](O)COP(=O)(O)OP(=O)(O)OC[C@H]3O[C@@H](n4cnc5c(N)ncnc54)[C@H](O)[C@@H]3O)c2cc1C
As to the kind of experiment: ferrozine A562 ferric reductase assay. The note with it: stimulation of ferric reductase activity, co-substrates NADH and ferric citrate, pH 7.5, varied: cofactor. The class given is biochemical, Paramagnetospirillum magneticum.

B1: Mms6 (Paramagnetospirillum magneticum AMB-1) (protein)
chain: VGGTIWTGKGLGLGLGLGLGAWGPIILGVVGAGAVYAYMKSRDIESAQSDEEVELRDALA
notes: micelles of about 13-15 nm
The Km is the concentration of substrate that gives half-maximal velocity. For B1, the Km in data set [1] is given as 15 µM; in data set [2], 25 µM.

Source of the values: paper PMC9499114, “The Magnetosome Protein, Mms6 from Magnetospirillum magneticum Strain AMB-1, Is a Lipid-Activated Ferric Reductase” (International Journal of Molecular Sciences, 2022).
